Test results reported in patent US20210163606A1 (ATYR PHARMA, published 2021).

Target: T1, mouse NRP2 I383V on transfected Expi293 cells (Mouse, UniProt O35375 21-931)
T1 construct: whole, on cells; also called 1383V
T1 sequence (looked up): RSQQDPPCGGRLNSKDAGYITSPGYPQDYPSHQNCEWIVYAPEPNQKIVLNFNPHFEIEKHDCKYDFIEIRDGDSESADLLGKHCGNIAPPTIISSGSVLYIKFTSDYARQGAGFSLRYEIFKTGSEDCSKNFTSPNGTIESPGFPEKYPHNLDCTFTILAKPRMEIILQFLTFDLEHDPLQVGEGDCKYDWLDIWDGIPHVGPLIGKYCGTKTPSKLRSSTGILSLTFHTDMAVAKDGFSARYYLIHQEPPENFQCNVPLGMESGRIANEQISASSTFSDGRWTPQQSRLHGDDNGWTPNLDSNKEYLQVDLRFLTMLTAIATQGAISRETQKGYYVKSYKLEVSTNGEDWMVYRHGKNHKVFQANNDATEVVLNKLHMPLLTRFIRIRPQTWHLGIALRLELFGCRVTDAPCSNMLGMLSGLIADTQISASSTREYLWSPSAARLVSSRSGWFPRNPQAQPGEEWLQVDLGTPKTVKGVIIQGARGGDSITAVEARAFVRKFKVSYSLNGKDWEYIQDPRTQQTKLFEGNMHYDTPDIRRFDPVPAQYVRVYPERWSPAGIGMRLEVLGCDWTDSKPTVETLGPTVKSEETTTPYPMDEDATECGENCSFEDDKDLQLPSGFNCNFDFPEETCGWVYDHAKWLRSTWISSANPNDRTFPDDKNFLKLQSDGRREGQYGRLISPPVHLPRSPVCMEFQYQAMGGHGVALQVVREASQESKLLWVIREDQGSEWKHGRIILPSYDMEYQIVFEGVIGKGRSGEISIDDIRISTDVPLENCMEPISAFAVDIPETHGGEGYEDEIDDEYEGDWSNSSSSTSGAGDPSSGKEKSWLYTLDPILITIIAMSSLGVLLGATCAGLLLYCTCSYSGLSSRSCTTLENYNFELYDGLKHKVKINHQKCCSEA
Assay: flow cytometry, aNRP2-10v10 at 10 nM on transfected Expi293 cells gated on live, single, NRP2 expressing cells [panel 11B]
Protocol: FIGS. 11A-11B show the measurement of antibody binding to Expi293 cells over-expressing NRP2. […] Gating for NRP2 over-expressing cells is shown.
Human NRP2a (version 2; see Table N1) and mouse NRP2v2 cDNAs were obtained from Origene. […] Human and mouse NRP2, expression vectors, along with expression vectors encoding all 6 mutants were transfected into Expi293 cells at 1 million cells/mL, by standard techniques. Approximately 40 hours post transfection cells were co-stained with aNRP2-10v10, and a species agnostic anti-NRP2 a1 specific binding antibody.

binding result: no binding (tested: 10 nM)
B1: aNRP2-10v10 (antibody, V domains shown)
VH: EVQLVQSGAEVKKPGATVKISCKVSGFNIKDYYVHWVQQAPGKGLEWMGRIDVEDDETKYAPKFQGRVTITADTSTDTAYMELSSLRSEDTAVYYCATPIYGAREAWFAYWGQGTLVTVSS
VL: DIQMTQSPSSLSASVGDRVTITCTASSSVSSSYLHWYQQKPGKAPKLLIYRTSNLASGVPSRFSGSGSGTDFTLTISSLQPEDFATYYCHQYYRSPPTFGGGTKVEIK
